Columns and labels:
[1] = In vitro SPF on PMMA plates using the SPF-290S Analyzer System; conditions: sunscreen containing 5% UV filter; 1.4 mg sunscreen per cm^2 on PMMA plates; triplicate
[2] = UV absorption (specific extinction E1/1) of the polymeric filter; format: physicochemical; conditions: in CHCl3 at 309 nm
Description: (§1) Cesium carbonate (16 g, 50 mmol) and potassium iodate (50 mg) were added to a solution of 4-(1,3-benzoxazol-2-yl)-phenol I (8.9 g, 42 mmol) (prepared according to Passerini, J. Chem. Soc. 1954, 2256-2257) in NMP (N-methylpyrolidon) (100 mL) and the mixture stirred under Argon at 80° C. for 20 min. A solution of mesylated poly(glycerol-b-propylene oxide) (7.48 g, 4.4 mmol, 35 mmol MsO) in NMP (60 mL) was added dropwise and the reaction mixture stirred at 80° C. for 12 h. Water and ethyl acetate were added (200 mL each), an orange precipitate was separated by filtration, and the aqueous layer was extracted with ethyl acetate (2×100 mL). […] The amount of attached chromophore was determined using ^1H NMR, comparing the integration of the signals of the phenol's aromatic protons at 6.99 and 8.12 ppm to trimethylolpropane CH3 at 0.87 ppm, to give an average of about 8 chromophores/polymer.
Potassium tert. butylate (2.3 g) were added to a solution of 4-Dicyanomethylene-2,6-dimethyl-1,4-dihydropyridine-N-ethane-2-ol (4.3 g, 20 mmol) in NMP (50 mL) and the mixture stirred under Argon at rt. for 10 min. […] This product was chromatographed in Ethylacetate/Ethanol=19:1 and the fractions were analyzed by GPC. […]
Hybrane200 D2000 (WO 99/16810) was supplied from DSM Hybrane (Geleen, The Netherlands) with a Mn of about 2000 g/mol as determined by GPC. […]

[3] = Solubility in Tegosoft TN (C12-C15 alkylbenzoate); format: physicochemical
Description: as §1
Hybrane200 D2000 (WO 99/16810) was supplied from DSM Hybrane (Geleen, The Netherlands) with a Mn of about 2000 g/mol as determined by GPC. […] The amount of attached chromophore was determined using ^1H NMR, comparing the integration of the signals of the aromatic protons at 6.59 and 7.85 ppm to the CH3 of the aliphatic chain at 0.86 ppm, to give an average of about 8 chromophores/polymer.

[4] = Photostability according to G. Berset et al., applying the prepared sunscreen instead of a liquid film; format: physicochemical; conditions: Brij O/W sunscreen containing 5% (w/w) chromophore; Berset method
Description: The photostability of the conjugates according to the present invention may be measured according to G. Berset et al. International Journal of Cosmetic Science 1996, 18(3), 167-177.
The hyperbranched chromophore II (5.0 g, corresponding to 5% (w/w) UV-filter/sunscreen) was dissolved in Tegosoft TN at 80° C. and added to a mixture of Brij 72 (INCI: Steareth-2) (2.0 g), Brij 721 (INCI: Steareth-21) (2.0 g), Lanette O (cetearyl alcohol) (2.0 g), Estol GMM 3650 (glyceryl monomyristate) (2.0 g), BHT (butylhydroxytoluene) (0.05 g) and Phenonip (phenoxyethanol and methyl-, ethyl-, propyl-, butylparaben) (0.8 g). The mixture was shortly heated to 80° C. in order to melt solid emulsifiers. To the still warm mixture (70-80° C.) a preheated solution (˜80° C.) of glycerin (4.0 g) and EDTA BD (0.1 g) in water (62.95 g) and subsequently 10% aqueous KOH (0.1 g) as well as Sepigel 305 (polyacrylamide and C13-C14 isoparaffin and Laureth-7) (1.0 g) were added slowly under continuous stirring. The resulting emulsion was stirred until a temperature of about 40° C. was reached, homogenized with 24,000 rpm using a ULTRA-TURRAX®, and finally stirred for an additional hour. […] Each in vitro SPF was determined in triplicate to give for chromophore II and Parsol® MCX an average of 6.6 (II) and 6.8, respectively.

| Structure (SMILES) | in vitro SPF (average) [1] | E1/1/-value [2] | solubility in Tegosoft TN [3] | photostability: chromophore recovered [4] [%] |
| --- | --- | --- | --- | --- |
| CCCCC(CC)COC(=O)C=Cc1ccc(OC)cc1 (centres unmarked) [Parsol® MCX, 2-ethylhexyl 4-methoxycinnamate, reference compound] | 6.8 |  |  |  |
| CCC(COCC(COCC(C)Oc1ccc(-c2nc3ccccc3o2)cc1)OCC(C)OCC(C)Oc1ccc(-c2nc3ccccc3o2)cc1)(COCC(COCC(C)OCC(C)Oc1ccc(-c2nc3ccccc3o2)cc1)OCC(C)Oc1ccc(-c2nc3ccccc3o2)cc1)COCC(COCC(COCC(C)Oc1ccc(-c2nc3ccccc3o2)cc1)OCC(C)Oc1ccc(-c2nc3ccccc3o2)cc1)OCC(COCC(C)Oc1ccc(-c2nc3ccccc3o2)cc1)OCC(C)Oc1ccc(-c2nc3ccccc3o2)cc1 (centres unmarked) [chromophore II] | 6.6 | 840 | at least 24 % (w/w) | 96 |

From patent US20080081025A1, “Uv Absorbing Chromophores Covalently Bonded to Hyperbranched Polymers” (DSM IP ASSETS B.V., priority 2004, published 2008)
